How the values were obtained:
p35 = target: T1, p35 (Mus musculus (Mouse), UniProt P61809 1-307); assay: immunoblot of striatal lysates from p25 over-expressing mice (FIG. 2B)
T1 construct: also called Cdk5 cofactor p35

[1] = target: T2, Cdk5 expressed in HEK293T cells from a transfected eukaryotic expression plasmid (UniProt Q00535 1-292); assay: immunohistochemical staining of transfected HEK293T cells (FIG. 2C)
T2 construct: also called cyclin-dependent kinase 5

[2] = target: T3, p25 generated in rat brain or rat striatal neurons by ischemia (MCAO or OGD) (rat, UniProt P61809 99-307 (mouse entry)); assay: detection of p25 in stroked rat brain; immunostains of striatum and cortex (FIG. 7D)
T3 construct: Endogenous protein in tissue sections, lysates and primary cultures; also called p25 generated by MCAO; p25 generated in response to focal ischemia
T3 sequence (P61809 99-307 limits assumed): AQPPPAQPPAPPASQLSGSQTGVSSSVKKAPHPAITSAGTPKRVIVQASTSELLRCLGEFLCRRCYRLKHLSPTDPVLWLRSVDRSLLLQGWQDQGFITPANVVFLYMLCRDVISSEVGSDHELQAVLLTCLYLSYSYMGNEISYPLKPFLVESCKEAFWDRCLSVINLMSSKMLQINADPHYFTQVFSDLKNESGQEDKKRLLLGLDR

T1 sequence (P61809 whole entry): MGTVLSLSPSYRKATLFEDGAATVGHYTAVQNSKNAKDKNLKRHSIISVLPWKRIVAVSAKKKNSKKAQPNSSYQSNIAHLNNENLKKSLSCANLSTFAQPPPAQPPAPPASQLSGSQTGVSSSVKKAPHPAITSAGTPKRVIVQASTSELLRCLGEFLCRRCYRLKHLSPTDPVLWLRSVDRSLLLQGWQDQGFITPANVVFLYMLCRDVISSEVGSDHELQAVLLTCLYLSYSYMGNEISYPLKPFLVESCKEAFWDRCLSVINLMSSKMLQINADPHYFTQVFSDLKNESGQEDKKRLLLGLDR

- binding result (p35): no binding
- binding result [1]: no binding
- binding result [2]: binds
B1: anti-p25 monoclonal antibody 1C4 (antibody, V domains shown)
VH: QIQLEESGPELRKPGETVRISCKASGYTFTTAGMQWVQKMPGTGLKWIGWINTHSGVPKYAGEFTGRFDFSLETSASTAYLQIVNLKNEDTATYFCARYGKFGEMDYWGQGTSVTVSS
VL: IVMTQSPASLAVSLGQRATISCRSSETVDSDGNSFMHWYQQKPGQSPKLLLYLASTLESGVPARFSGSGSRTDFTLTIDPVEADDAATYYCHQNNEDPTFGGGTKLEIKR
notes: Mouse monoclonal antibody from hybridoma 1C4; also called p25 mAb; anti-p25 antibody

Reference: patent US8728472 (University of Texas, dated 2014)
